Reference: patent publication US20250101126A1 (GO THERAPEUTICS, published 2025)
Values belong to the binder of their own block, whether it stands above or below them.

Key:
[1] = target: T1, MUC4-Tn glycopeptide CTIPSTAMHTRSTAAPIPILP (SEQ ID NO:154) with O-linked GalNAc on the serine and threonine … (not fully specified; O-linked GalNAc on Ser 12 and Thr 13; N-terminal biotin (Table 6); C-terminal amide in the form described in the SPR/BLI methods); assay: BLI (Octet), apparent affinity; peptide on biosensor; +/- error at 95% confidence; same value as Table 7
T1 construct: Synthetic glycopeptide made by FMOC synthesis; also called MUC4 glycopeptide; Tn-glycosylated MUC4 peptide
T1 peptide: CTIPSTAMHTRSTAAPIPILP

[2] = target: T1, MUC4-Tn glycopeptide …; assay: SPR (Biacore); antibody immobilized, peptide as analyte
From the text: Antibody affinity assays can be carried out using surface plasmon resonance (e.g., using a Biacore system (Cytiva)). In a surface plasmon resonance assay, one or more antibodies can be immobilized onto a biosensor and presented with an analyte (e.g., the glyco-MUC4 peptide […]-amide (the amino acid portion of which is SEQ ID NO:154; bold and underlined residues indicate GalNAc glycosylation sites) or a negative control analyte such as un unglycosylated MUC4 peptide ([…]-amide (the amino acid portion of which is SEQ ID NO:155)). The antibodies are contacted with different concentrations of the analyte, for example concentrations of 2.5 nM, 7.4 nM, 22 nM, 66 nM and 200 nM. Affinity is measured using multi-cycle kinetics in triplicate for each analyte concentration, with 1 min association and 5 min dissociation. […] The affinity is determined by fitting the binding curve to a specific model: kinetic fit (1:1 model) or if applicable heterogenous ligand binding model.

[3] = target: T1, MUC4-Tn glycopeptide …; assay: BLI (Octet), apparent affinity; peptide on biosensor; error +/- 0.251 nM at 95% confidence (r8c5)
MUC1-Tn [4] = assay: BLI (Octet), apparent affinity; peptide on biosensor; error +/- 5.9 µM (r8c9)
[5] = target: T2, MUC4-Tn(T) peptide Biotin-CTIPSTAMHTRSTAAPIPILP (SEQ ID NO:198) (GalNAc on a threonine only (by the label Tn(T); the bold/underline marking of the site is lost in the text); N-terminal biotin); assay: BLI (Octet), apparent affinity; peptide on biosensor; error printed as 1 pM (r10c7)
T2 construct: Singly glycosylated form of the MUC4 peptide
T2 peptide: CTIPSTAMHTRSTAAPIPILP

MUC1-Tn [6] = assay: BLI (Octet), apparent affinity; peptide on biosensor; error +/- 7.6 µM (r10c9)
[7] = target: T1, MUC4-Tn glycopeptide …; assay: BLI (Octet), apparent affinity; peptide on biosensor; error +/- 2.32 nM (r10c5)
[8] = target: T1, MUC4-Tn glycopeptide …; assay: BLI (Octet), MUC4 glycopeptide on biosensor
[9] = target: T3, Tn-glycosylated MUC4 on cells (MUC4-Tn; COSMC-KO cells, cancer tissue) (UniProt Q99102 29-5412, limits assumed, truncated Tn O-glycans (GalNAc-alpha1-O-Ser/Thr), from knock-out of the COSMC chaperone or in cancer tissue); assay: flow cytometry on T3M4 COSMC-KO (T3M4-M) cells
T3 construct: whole, on cells; also called Tn-MUC4; glyco-MUC4
Protocol: Adherent cells were dissociated with TrypLE select (Gibco) and washed from flask surface with cell culture media (RPMI w/L-glutamine, 1% PenStrep, & 10% FBS). Cells were washed several times by centrifugation at 300*g for 5 min at 4° C. followed by resuspension in PBS with 1% BSA (PBS/1% BSA). Cells were resuspended between 5×10⁵ cells/ml to 2×10⁶ cell/ml and then distributed into a 96 well U-bottom plate. Diluted commercial antibody (0.25-2 ug/ml), or purified humanized 2D5 candidates were added to T3M4 COSMC-KO cells and incubated for 1 hr on ice. Following several washes with PBS/1% BSA, cells were incubated for 30 min on ice with a 1:1600 dilution of AlexaFluor647 conjugated F(ab)₂ goat anti-human IgG Fcγ (JacksonImmunoResearch). Cells were washed again with PBS/1% BSA and then fixed in 1% formaldehyde in PBS/1% BSA. Cells were analysed on either a 2 or 4 laser Attune NXT flow cytometer. Data was processed in FlowJo Software.

[10] = target: T2, MUC4-Tn(T) peptide …; assay: BLI (Octet), apparent affinity; peptide on biosensor; error +/- 66 µM (r12c7)
MUC1-Tn [11] = assay: BLI (Octet), apparent affinity; peptide on biosensor; error +/- 3.7 µM (r12c9)
[12] = target: T1, MUC4-Tn glycopeptide …; assay: BLI (Octet), apparent affinity; peptide on biosensor; error +/- 10 nM (r12c5)

Kd [5]: 560 nM
Kd (MUC1-Tn [6]): 2800 nM
Kd [2]: 3.93 nM
Kd [7]: 2.32 nM
B2: 5B8.2A11.2C7 (antibody, V domains shown)
VH: QVQLQQSDAELVKPGASVKISCKASGYTFTDHAIHWVKQKPEQGLEWIGYFSPGNGDIKYNEKFKGKATLTADRSSSTANMHLNSLTSEDSAVYFCKRSMANYFDYWGQGTTLTVSS
VL: NIMMTQSPSSLVVSAGEKVTMSCKSSHSVLYSSNQKNYLAWYQQKPGQSPKLLIYWASTKNSGVPDRFTGSGSGTDFTLTISSVQAEDLAVYYCHQYLSSYTFGGGTKLEIK
notes: Murine monoclonal antibody from a hybridoma; also called mAb 5B8

Kd [8]: 3.2 nM
EC50 [9]: 0.0177 µg/mL
B3: 2D5-cAb Chimeric antibody (human Fc domain + murine variable domain) (antibody, V domains shown)
VH: QVQLQQSDAELVKPGASVRISCKAYGYTFTDHAIHWVKQKPEQGLEWLGYISPGNDDIQYNAKFKGKATLTADKSSSTAYMQLNSLTSDDSAVYFCKRSMANSFDYWGQGTTLTVSS
VL: NIMLTQSPSSLAVSAGEKVTMSCKSSQSVLYSSDQKNYLAWYQQKPGQSPKLLIYWASTRESGVPDRFTGSGSGTDFTLTISNVQAEDLAVYYCHQYLSSYTFGGGTKLEIK

The next lines start with the binder.

B1: 2D5.2F6.2C11 (antibody, V domains shown)
VH: QVQLQQSDAELVKPGASVRISCKAYGYTFTDHAIHWVKQKPEQGLEWLGYISPGNDDIQYNAKFKGKATLTADKSSSTAYMQLNSLTSDDSAVYFCKRSMANSFDYWGQGTTLTVSS
VL: NIMLTQSPSSLAVSAGEKVTMSCKSSQSVLYSSDQKNYLAWYQQKPGQSPKLLIYWASTRESGVPDRFTGSGSGTDFTLTISNVQAEDLAVYYCHQYLSSYTFGGGTKLEIK
notes: Murine monoclonal antibody from a hybridoma (Balb/c mice immunized with the KLH-conjugated Tn-MUC4 glycopeptide); also called mAb 2D5
Kd [1]: 2 nM
Kd [2]: 3.96 nM
Kd [3]: 2 nM
Kd (MUC1-Tn [4]): 2900 nM

B4: 15F3.2D11.1E6 (antibody, V domains shown)
VH: QVQLQQSDAELVEPGASVKISCKAYGYTFTDHAIHWVKQKPEQGLEWLGYISPGNDDIQYNAKFKGRATLTADKSSSTAYMQLNSLTSDDSAVYFCKRSMANSFDFWGQGTTLTVSS
VL: NIMLTQSPSSLAVSAGEKVTMSCKSSQSVLYSSDQKNYLAWYQQKPGQSPKLLIYWASTRESGVPDRFTGSGSGTDFTLTISNVRAEDLAVYYCHQYLSSYTFGGGTKLEIK
notes: Murine monoclonal antibody from a hybridoma; also called mAb 15F3
Kd [10]: 79000 nM
Kd (MUC1-Tn [11]): 2500 nM
Kd [2]: 3.56 nM
Kd [12]: 50.2 nM
